How the values were obtained:
wdfy3_human WDFY3 = wdfy3_human WDFY3 (UniProt Q8IZQ1)
mlp3b_human MAP1LC3B = mlp3b_human MAP1LC3B (UniProt Q9GZQ8)
mlp3c_human MAP1LC3C [1] = molecular target: mlp3c_human MAP1LC3C (UniProt Q9BXW4)
mlp3c_human MAP1LC3C [2] = molecular target: mlp3c_human MAP1LC3C (UniProt Q9BXW4); remark: listed apart in the source

Sequence of UniProt Q9BXW4 (Q9BXW4 whole entry): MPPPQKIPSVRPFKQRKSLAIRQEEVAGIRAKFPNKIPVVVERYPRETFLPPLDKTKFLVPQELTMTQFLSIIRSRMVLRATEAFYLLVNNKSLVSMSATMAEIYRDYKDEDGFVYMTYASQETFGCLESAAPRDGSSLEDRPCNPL
Sequence of UniProt Q8IZQ1 (Q8IZQ1 whole entry): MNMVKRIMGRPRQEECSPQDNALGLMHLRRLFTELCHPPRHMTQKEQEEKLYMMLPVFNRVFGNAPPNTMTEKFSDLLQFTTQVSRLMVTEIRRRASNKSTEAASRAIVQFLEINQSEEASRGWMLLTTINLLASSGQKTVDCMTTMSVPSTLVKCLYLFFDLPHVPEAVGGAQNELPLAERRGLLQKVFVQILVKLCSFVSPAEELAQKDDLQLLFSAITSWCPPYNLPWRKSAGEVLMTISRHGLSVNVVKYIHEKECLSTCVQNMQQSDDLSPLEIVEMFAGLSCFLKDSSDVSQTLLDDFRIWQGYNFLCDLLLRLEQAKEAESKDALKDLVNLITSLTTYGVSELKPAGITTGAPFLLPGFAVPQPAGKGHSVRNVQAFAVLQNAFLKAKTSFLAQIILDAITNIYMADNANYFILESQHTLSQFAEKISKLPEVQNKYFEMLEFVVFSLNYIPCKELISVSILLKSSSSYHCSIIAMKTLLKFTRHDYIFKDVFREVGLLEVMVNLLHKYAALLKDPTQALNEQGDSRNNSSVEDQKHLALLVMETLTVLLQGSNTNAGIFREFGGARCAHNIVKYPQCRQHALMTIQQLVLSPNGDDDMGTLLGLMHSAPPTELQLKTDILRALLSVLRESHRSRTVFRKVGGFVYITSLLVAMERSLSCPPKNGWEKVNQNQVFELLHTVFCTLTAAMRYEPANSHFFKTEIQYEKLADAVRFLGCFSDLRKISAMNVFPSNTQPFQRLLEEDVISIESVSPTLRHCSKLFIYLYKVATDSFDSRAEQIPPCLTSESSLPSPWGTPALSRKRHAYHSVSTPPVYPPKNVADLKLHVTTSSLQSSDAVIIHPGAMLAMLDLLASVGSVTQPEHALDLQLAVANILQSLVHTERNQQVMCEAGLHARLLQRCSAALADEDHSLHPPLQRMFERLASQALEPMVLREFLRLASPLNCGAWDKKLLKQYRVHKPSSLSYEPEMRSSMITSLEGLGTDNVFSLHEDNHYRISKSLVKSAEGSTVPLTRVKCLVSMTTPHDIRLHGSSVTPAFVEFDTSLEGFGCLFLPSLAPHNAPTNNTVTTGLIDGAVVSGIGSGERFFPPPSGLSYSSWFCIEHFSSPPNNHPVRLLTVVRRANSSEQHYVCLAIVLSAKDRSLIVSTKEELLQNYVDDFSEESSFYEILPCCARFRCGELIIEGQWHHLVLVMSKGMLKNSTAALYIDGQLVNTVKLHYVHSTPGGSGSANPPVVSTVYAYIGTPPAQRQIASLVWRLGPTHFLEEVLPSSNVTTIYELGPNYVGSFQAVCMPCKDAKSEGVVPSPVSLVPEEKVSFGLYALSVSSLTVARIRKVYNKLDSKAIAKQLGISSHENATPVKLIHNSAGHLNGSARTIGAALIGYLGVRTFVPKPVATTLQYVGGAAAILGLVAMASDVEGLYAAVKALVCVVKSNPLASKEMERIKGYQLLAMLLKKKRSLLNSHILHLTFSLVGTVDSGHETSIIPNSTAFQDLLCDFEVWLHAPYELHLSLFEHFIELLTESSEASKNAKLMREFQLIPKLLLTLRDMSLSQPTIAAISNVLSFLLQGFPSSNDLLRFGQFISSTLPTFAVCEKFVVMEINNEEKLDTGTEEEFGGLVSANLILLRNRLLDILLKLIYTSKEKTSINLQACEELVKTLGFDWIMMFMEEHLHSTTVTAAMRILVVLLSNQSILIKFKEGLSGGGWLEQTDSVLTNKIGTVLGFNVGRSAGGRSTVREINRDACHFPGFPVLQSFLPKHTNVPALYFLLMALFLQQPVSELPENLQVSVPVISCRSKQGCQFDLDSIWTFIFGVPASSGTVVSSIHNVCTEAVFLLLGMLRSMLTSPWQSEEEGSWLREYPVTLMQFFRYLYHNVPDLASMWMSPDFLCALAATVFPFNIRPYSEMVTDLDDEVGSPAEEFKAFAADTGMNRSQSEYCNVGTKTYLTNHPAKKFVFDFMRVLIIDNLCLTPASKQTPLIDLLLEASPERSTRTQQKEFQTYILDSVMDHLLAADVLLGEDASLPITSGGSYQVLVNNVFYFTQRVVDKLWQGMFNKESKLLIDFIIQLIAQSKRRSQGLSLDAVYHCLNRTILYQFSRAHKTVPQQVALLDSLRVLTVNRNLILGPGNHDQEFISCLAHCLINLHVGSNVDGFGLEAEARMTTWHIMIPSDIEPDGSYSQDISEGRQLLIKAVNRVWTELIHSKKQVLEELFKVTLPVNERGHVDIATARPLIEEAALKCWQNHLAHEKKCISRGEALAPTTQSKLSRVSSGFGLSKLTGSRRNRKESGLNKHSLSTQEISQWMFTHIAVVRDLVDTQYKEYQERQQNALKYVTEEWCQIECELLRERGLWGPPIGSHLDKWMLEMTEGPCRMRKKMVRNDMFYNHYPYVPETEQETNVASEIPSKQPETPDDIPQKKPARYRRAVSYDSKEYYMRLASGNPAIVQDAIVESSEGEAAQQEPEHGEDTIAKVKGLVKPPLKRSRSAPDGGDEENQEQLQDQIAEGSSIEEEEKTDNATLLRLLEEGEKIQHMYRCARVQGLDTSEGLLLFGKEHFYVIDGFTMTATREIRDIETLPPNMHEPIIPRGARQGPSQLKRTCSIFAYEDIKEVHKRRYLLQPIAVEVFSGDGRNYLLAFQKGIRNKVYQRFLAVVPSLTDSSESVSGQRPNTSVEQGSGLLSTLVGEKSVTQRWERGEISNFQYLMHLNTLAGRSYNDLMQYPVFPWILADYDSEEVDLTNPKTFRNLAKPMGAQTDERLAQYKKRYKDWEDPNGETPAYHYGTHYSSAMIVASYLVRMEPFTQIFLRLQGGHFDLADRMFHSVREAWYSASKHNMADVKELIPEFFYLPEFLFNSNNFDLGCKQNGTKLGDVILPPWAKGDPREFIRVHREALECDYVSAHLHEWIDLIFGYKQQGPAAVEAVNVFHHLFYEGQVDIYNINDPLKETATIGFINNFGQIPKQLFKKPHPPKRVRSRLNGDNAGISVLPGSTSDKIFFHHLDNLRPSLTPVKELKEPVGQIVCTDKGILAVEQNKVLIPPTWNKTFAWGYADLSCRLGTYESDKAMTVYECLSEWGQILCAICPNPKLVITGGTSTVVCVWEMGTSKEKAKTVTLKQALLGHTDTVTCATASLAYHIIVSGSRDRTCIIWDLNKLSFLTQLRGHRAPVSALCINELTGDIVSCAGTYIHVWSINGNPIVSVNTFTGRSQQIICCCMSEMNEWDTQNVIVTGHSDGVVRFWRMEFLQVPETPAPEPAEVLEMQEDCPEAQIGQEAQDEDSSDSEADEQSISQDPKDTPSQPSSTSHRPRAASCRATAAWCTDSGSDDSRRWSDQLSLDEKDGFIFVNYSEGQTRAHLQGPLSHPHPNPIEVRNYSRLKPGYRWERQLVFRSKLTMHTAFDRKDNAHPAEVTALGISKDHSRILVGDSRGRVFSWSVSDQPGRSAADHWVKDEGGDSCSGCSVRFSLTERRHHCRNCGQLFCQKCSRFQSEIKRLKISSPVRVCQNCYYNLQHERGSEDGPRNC

Substance: Microtubule-associated protein 1 light chain 3 beta (Homo sapiens) (from UniProt Q9GZQ8) Q26K;H27Y;H57D
- effect of a mutation on the interaction (wdfy3_human WDFY3): increasing interaction

Substance: WD repeat and FYVE domain-containing protein 3 (Homo sapiens), Q8IZQ1 F3346A
- effect of a mutation on the interaction (mlp3b_human MAP1LC3B): disrupting interaction

Substance: WD repeat and FYVE domain-containing protein 3 (Homo sapiens), Q8IZQ1 I3347A
- effect of a mutation on the interaction (mlp3c_human MAP1LC3C [1]): decreasing interaction

Substance: WD repeat and FYVE domain-containing protein 3 (Homo sapiens), Q8IZQ1 V3349A
- effect of a mutation on the interaction (mlp3c_human MAP1LC3C [2]): decreasing interaction

Source: IntAct's records for PubMed 24668264
